Experimental findings from IntAct's records for PubMed 10531343 are described below.

The chains are these.
B1: Synaptotagmin-10 (Mus musculus), Q9R0N4 (parent)
chain: MSFRKEDGVSSLCQKALHIITELCFAGQVEWDKCSGIFPADRSGQGGGGTDISVSLLAVVVSFCGLALLVVSLFVFWKLCWPCWKSKLVAPNLSVLPQSISSAPTEVFETEEKKEVEENEKPAPKAIEPAIKISHTSPDIPAEVQTALKEHLIKHARVQRQTTEPTSSSRHNSFRRHLPRQMNVSSVDFSVGTEPILQRGETRTSIGRIKPELYKQKSVDSEGNRKDDVKTCGKLNFALQYDYENELLVVKIIKALDLPAKDFTGTSDPYVKIYLLPDRKKKFQTRVHRKTLNPLFDELFQFPVVYDQLSNRKLHFSIYDFDRFSRHDMIGEVILDNLFEVSDLSREATVWKDIHCATTESIDLGEIMFSLCYLPTAGRMTLTVIKCRNLKAMDITGSSDPYVKVSLMCEGRRLKKRKTTTKKNTLNPVYNEAIIFDIPPENVDQVSLCIAVMDYDRVGHNEVIGVCRTGLDAEGLGRDHWNEMLAYHRKPITHWHPLLELPGRATSFDSQGSCSSPRPPSTP
partner: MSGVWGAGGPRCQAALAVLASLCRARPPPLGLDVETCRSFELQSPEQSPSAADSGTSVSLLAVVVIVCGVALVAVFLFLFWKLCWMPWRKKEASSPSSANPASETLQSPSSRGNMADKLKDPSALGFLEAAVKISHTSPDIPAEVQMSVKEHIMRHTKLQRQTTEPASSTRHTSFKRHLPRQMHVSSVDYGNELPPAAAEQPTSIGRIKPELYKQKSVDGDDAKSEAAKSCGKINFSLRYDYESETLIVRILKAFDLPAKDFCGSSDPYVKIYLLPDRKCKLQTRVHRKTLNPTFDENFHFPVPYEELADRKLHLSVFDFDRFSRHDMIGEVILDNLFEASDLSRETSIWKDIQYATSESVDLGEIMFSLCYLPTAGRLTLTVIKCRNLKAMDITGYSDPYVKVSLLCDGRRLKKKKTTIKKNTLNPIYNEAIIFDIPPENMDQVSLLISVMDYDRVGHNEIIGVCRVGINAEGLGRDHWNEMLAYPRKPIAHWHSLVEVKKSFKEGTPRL
B2: Synaptotagmin-6 (Mus musculus), Q9R0N8 (parent)
chain: B1 partner
partner: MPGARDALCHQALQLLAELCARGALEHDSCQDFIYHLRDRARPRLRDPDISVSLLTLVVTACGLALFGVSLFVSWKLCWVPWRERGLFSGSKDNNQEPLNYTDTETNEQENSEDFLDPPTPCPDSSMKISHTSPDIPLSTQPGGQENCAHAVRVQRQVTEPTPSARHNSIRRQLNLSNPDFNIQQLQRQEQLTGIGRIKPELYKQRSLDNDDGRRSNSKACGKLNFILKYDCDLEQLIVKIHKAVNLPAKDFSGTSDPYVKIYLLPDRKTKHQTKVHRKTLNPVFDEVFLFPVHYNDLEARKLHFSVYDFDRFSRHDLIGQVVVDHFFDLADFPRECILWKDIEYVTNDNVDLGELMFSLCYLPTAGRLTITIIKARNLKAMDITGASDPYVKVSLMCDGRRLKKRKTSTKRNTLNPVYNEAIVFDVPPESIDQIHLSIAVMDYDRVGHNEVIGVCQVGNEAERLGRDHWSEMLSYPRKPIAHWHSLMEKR
B3: Synaptotagmin-9 (Mus musculus), Q9R0N9 (parent)
chain: B2 partner
partner: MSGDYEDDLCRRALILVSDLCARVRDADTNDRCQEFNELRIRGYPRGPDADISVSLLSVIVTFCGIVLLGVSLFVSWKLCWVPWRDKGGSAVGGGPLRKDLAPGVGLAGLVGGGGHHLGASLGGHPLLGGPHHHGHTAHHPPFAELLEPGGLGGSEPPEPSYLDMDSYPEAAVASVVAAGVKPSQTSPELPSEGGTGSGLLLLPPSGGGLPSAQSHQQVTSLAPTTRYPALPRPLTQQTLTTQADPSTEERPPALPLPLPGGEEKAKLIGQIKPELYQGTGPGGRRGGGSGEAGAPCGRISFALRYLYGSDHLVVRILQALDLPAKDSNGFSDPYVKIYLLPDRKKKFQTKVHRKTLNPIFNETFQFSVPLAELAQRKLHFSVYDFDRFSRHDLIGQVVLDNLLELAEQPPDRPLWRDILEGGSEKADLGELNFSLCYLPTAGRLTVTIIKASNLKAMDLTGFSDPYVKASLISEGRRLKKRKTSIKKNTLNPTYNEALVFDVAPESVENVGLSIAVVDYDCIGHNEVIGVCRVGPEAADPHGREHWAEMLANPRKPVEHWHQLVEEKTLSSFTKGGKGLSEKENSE
B4: Synaptotagmin-3 (Mus musculus), O35681 (parent)
chain: B3 partner
partner: B2 partner
B5: Synaptotagmin-6 (Mus musculus), Q9R0N8 (parent)
chain: B1 partner
partner: B3 partner
B6: Synaptotagmin-3 (Mus musculus), O35681 (parent)
chain: B3 partner
partner: B1 partner

In one assay the parent is B1. The following applies: with syt6_mouse Syt6, Q9R0N8.
In the case of MSFRKEDGVSSLAQKALHIITELCFAGQVEWDKCSGIFPADRSGQGGGGTDISVSLLAVVVSFCGLALLVVSLFVFWKLCWPCWKSKLVAPNLSVLPQSISSAPTEVFETEEKKEVEENEKPAPKAIEPAIKISHTSPDIPAEVQTALKEHLIKHARVQRQTTEPTSSSRHNSFRRHLPRQMNVSSVDFSVGTEPILQRGETRTSIGRIKPELYKQKSVDSEGNRKDDVKTCGKLNFALQYDYENELLVVKIIKALDLPAKDFTGTSDPYVKIYLLPDRKKKFQTRVHRKTLNPLFDELFQFPVVYDQLSNRKLHFSIYDFDRFSRHDMIGEVILDNLFEVSDLSREATVWKDIHCATTESIDLGEIMFSLCYLPTAGRMTLTVIKCRNLKAMDITGSSDPYVKVSLMCEGRRLKKRKTTTKKNTLNPVYNEAIIFDIPPENVDQVSLCIAVMDYDRVGHNEVIGVCRTGLDAEGLGRDHWNEMLAYHRKPITHWHPLLELPGRATSFDSQGSCSSPRPPSTP [C13A], the “effect of a mutation on the interaction” value was “decreasing interaction”.

A further assay covers variants of B2. The settings on record: with syt9_mouse Syt9, Q9R0N9.
For MSGVWGAGGPRAQAALAVLASLCRARPPPLGLDVETCRSFELQSPEQSPSAADSGTSVSLLAVVVIVCGVALVAVFLFLFWKLCWMPWRKKEASSPSSANPASETLQSPSSRGNMADKLKDPSALGFLEAAVKISHTSPDIPAEVQMSVKEHIMRHTKLQRQTTEPASSTRHTSFKRHLPRQMHVSSVDYGNELPPAAAEQPTSIGRIKPELYKQKSVDGDDAKSEAAKSCGKINFSLRYDYESETLIVRILKAFDLPAKDFCGSSDPYVKIYLLPDRKCKLQTRVHRKTLNPTFDENFHFPVPYEELADRKLHLSVFDFDRFSRHDMIGEVILDNLFEASDLSRETSIWKDIQYATSESVDLGEIMFSLCYLPTAGRLTLTVIKCRNLKAMDITGYSDPYVKVSLLCDGRRLKKKKTTIKKNTLNPIYNEAIIFDIPPENMDQVSLLISVMDYDRVGHNEIIGVCRVGINAEGLGRDHWNEMLAYPRKPIAHWHSLVEVKKSFKEGTPRL [C12A], the “effect of a mutation on the interaction” value is reported as “decreasing interaction”.

Variants of B3 are the subject of the next assay. The settings on record: with syt3_mouse Syt3, O35681.
As to MPGARDALAHQALQLLAELCARGALEHDSCQDFIYHLRDRARPRLRDPDISVSLLTLVVTACGLALFGVSLFVSWKLCWVPWRERGLFSGSKDNNQEPLNYTDTETNEQENSEDFLDPPTPCPDSSMKISHTSPDIPLSTQPGGQENCAHAVRVQRQVTEPTPSARHNSIRRQLNLSNPDFNIQQLQRQEQLTGIGRIKPELYKQRSLDNDDGRRSNSKACGKLNFILKYDCDLEQLIVKIHKAVNLPAKDFSGTSDPYVKIYLLPDRKTKHQTKVHRKTLNPVFDEVFLFPVHYNDLEARKLHFSVYDFDRFSRHDLIGQVVVDHFFDLADFPRECILWKDIEYVTNDNVDLGELMFSLCYLPTAGRLTITIIKARNLKAMDITGASDPYVKVSLMCDGRRLKKRKTSTKRNTLNPVYNEAIVFDVPPESIDQIHLSIAVMDYDRVGHNEVIGVCQVGNEAERLGRDHWSEMLSYPRKPIAHWHSLMEKR [C9A], the “effect of a mutation on the interaction” value was “decreasing interaction”.

In the next assay the parent is B4. The following applies: with syt9_mouse Syt9, Q9R0N9.
MSGDYEDDLARRALILVSDLCARVRDADTNDRCQEFNELRIRGYPRGPDADISVSLLSVIVTFCGIVLLGVSLFVSWKLCWVPWRDKGGSAVGGGPLRKDLAPGVGLAGLVGGGGHHLGASLGGHPLLGGPHHHGHTAHHPPFAELLEPGGLGGSEPPEPSYLDMDSYPEAAVASVVAAGVKPSQTSPELPSEGGTGSGLLLLPPSGGGLPSAQSHQQVTSLAPTTRYPALPRPLTQQTLTTQADPSTEERPPALPLPLPGGEEKAKLIGQIKPELYQGTGPGGRRGGGSGEAGAPCGRISFALRYLYGSDHLVVRILQALDLPAKDSNGFSDPYVKIYLLPDRKKKFQTKVHRKTLNPIFNETFQFSVPLAELAQRKLHFSVYDFDRFSRHDLIGQVVLDNLLELAEQPPDRPLWRDILEGGSEKADLGELNFSLCYLPTAGRLTVTIIKASNLKAMDLTGFSDPYVKASLISEGRRLKKRKTSIKKNTLNPTYNEALVFDVAPESVENVGLSIAVVDYDCIGHNEVIGVCRVGPEAADPHGREHWAEMLANPRKPVEHWHQLVEEKTLSSFTKGGKGLSEKENSE [C10A]: the “effect of a mutation on the interaction” value is recorded as “decreasing interaction”.

In another assay the parent is B5. The settings on record: with syt3_mouse Syt3, O35681.
Take MSGVWGAGGPRAQAALAVLASLCRARPPPLGLDVETCRSFELQSPEQSPSAADSGTSVSLLAVVVIVCGVALVAVFLFLFWKLCWMPWRKKEASSPSSANPASETLQSPSSRGNMADKLKDPSALGFLEAAVKISHTSPDIPAEVQMSVKEHIMRHTKLQRQTTEPASSTRHTSFKRHLPRQMHVSSVDYGNELPPAAAEQPTSIGRIKPELYKQKSVDGDDAKSEAAKSCGKINFSLRYDYESETLIVRILKAFDLPAKDFCGSSDPYVKIYLLPDRKCKLQTRVHRKTLNPTFDENFHFPVPYEELADRKLHLSVFDFDRFSRHDMIGEVILDNLFEASDLSRETSIWKDIQYATSESVDLGEIMFSLCYLPTAGRLTLTVIKCRNLKAMDITGYSDPYVKVSLLCDGRRLKKKKTTIKKNTLNPIYNEAIIFDIPPENMDQVSLLISVMDYDRVGHNEIIGVCRVGINAEGLGRDHWNEMLAYPRKPIAHWHSLVEVKKSFKEGTPRL [C12A]: the “effect of a mutation on the interaction” value was “decreasing interaction”.

In a further assay the parent is B6. The following applies: with syt6_mouse Syt6, Q9R0N8.
As for MSGDYEDDLARRALILVSDLCARVRDADTNDRCQEFNELRIRGYPRGPDADISVSLLSVIVTFCGIVLLGVSLFVSWKLCWVPWRDKGGSAVGGGPLRKDLAPGVGLAGLVGGGGHHLGASLGGHPLLGGPHHHGHTAHHPPFAELLEPGGLGGSEPPEPSYLDMDSYPEAAVASVVAAGVKPSQTSPELPSEGGTGSGLLLLPPSGGGLPSAQSHQQVTSLAPTTRYPALPRPLTQQTLTTQADPSTEERPPALPLPLPGGEEKAKLIGQIKPELYQGTGPGGRRGGGSGEAGAPCGRISFALRYLYGSDHLVVRILQALDLPAKDSNGFSDPYVKIYLLPDRKKKFQTKVHRKTLNPIFNETFQFSVPLAELAQRKLHFSVYDFDRFSRHDLIGQVVLDNLLELAEQPPDRPLWRDILEGGSEKADLGELNFSLCYLPTAGRLTVTIIKASNLKAMDLTGFSDPYVKASLISEGRRLKKRKTSIKKNTLNPTYNEALVFDVAPESVENVGLSIAVVDYDCIGHNEVIGVCRVGPEAADPHGREHWAEMLANPRKPVEHWHQLVEEKTLSSFTKGGKGLSEKENSE [C10A], the “effect of a mutation on the interaction” value is reported as “decreasing interaction”.
